Data on 16 molecules can be found in patent publication US12281162 (LANOVA MEDICINES DEVELOPMENT, dated 2025).

Sequences and labels used below:
B1: 34D3H1 (antibody, V domains shown)
VH: EVHLVESGGDLVKPGGSLKLSCAASGFTFSSYGMSWVRQTPDKRLEWVATISSGGSYTYYPDSVKGRFTISRDNAKNTLNLQMSSLKSEDTAMYYCARQGGDAMDYWGQGTSVTVSS
VL: DIVLTQSPATLSVTPGDSVSLSCRASQSINNNLHWYQQKSHESPRLLIKYASQSISGIPSRFSGSGSGTDFTLSINSVETEDFGMYFCQQSNSRLTFGAGTKLELK
notes: murine antibody from hybridoma supernatant
B2: 2D3C12 (antibody, V domains shown)
VH: QVQLQQSGAELVRPGTSVKVSCKASGYAFINYLIEWIKQRPGQGLEWIGMINPGSGGTNYNEKFKDKATLTADKSSSTAYMQLSSLTSDDSAVYFCARNWDVWGQGTTLTVSS
VL: DVVMTQSPLSLPVSLGDQASVSCRSSQSLVHSTGNTYLHWYLQKPGQSPKLLIYKVSNRFSGVPDRFSGSGSGTDFTLKISRVEAEDLGVYFCSQSTHVPWTFGGGTKLEIK
notes: as for B1
B3: 21C3C11B3 (antibody, V domains shown)
VH: QVQLQQSGAELVRPGTSVKVSCKASGYAFINYLIEWIKQRPGQGLEWIGMINPGSGGTNYNEKFKDKATLTADKSSSTAYMQLSSLTSDDSAVYFCARNWDVWGQGTTLTVSS
VL: DVVMTQSPLSLPVSLGDQASVSCRSSQSLVHSTGNTYLHWYLQKPGQSPKLLIYKVSNRFSGVPDRFSGSGSGTDFTLKISRVEAEDLGVYFCSQSTHVPWTFGGGTKLEIK
notes: as for B1
B4: 34D4A10 (antibody, V domains shown)
VH: QVQLQQSGAELVRPGTSVKVSCKASGYAFISYLIEWIKQRPGQGLEWIGMINPGSGGTNYNEKFKDKATLTADKSSSTAYMQLSSLTSDDSAVYFCARNWDVWGQGTTLTVSS
VL: DVVMTQSPLSLPVSLGDQASVSCRSSQSLVHSTGNTYLHWYLQKPGQSPKLLIYKVSNRFSGVPDRFSGSGSGTDFTLKISRVEAEDLGVYFCSQSTHVPWTFGGGTKLEIK
notes: as for B1
B5: 58F9G10 (antibody, V domains shown)
VH: EVQLQQSGPELVKTGASVKISCKASGYSFTGYYIHWVKQSHGKSLEWIGYISCYNGATSFNQKFKGKATFTVDTSSSTAYMQFNSLTSEDSAVYYCARTELRGPWFAYWGQGTLVTVSA
VL: QTVLTQSPAIMSASPGEKVTMTCSASSSVSYMNWYQQKSGTSPKRWIYDTSKLASGVPARFSGSGSGTSYSLTISSMEAEDAATYYCQQWSNNPLTFGAGTKLELK
notes: as for B1
B6: 40A5B2 (antibody, V domains shown)
VH: EVQLQQSGPELVKPGASVKMSCKASGYTFTRNIMHWVKQKPGQGLEWIGYINPYNAGSKYNEKFKGKATLTSDISSSTAYMELSSLTSEDSAVYYCAREEVYYRYGAWFAYWGHGTLVTVSA
VL: DIVLTQSPASLAVSLGQRATISCRASQSVSTSSYSYMHWYQQKPGQPPKLLIKYASNLESGVPARFSGSGSGTDFTLNIHPVEEEDTATYYCQHSWEIPRTFGGGTKLEIK
notes: as for B1
B7: 6G10D9 (antibody, V domains shown)
VH: QVQLQQSGAELARPGASVKMSCKASGYTFTTYTMHWVKQRPGQGLEWLGYINPSSGYTNYNQKFKDKATLTAGKSSSTAYMQLSSLTSEDSAVYYCASLRSRGYFDYWGQGTTLTVSS
VL: DIVMTQSQTFMSTSVGDRVRITCKASQNVGTAVVWYQQKTGQSPRLLIYSASNRYTGVPDRFTGSGSGTDFTLTISNMQSEDLADFFCQQYSSYPYTFGGGTKLEIK
notes: as for B1
B8: 38A10E9A11 (antibody, V domains shown)
VH: QVQLQQSGAELARPGASVKMSCKASGYTFTTYTMHWVKQRPGQGLEWIGYINPSSGYTNYNQKFKDKATLTAGKSSSTAYMQLSSLTSEDSAVYYCASLRSRGYFDYWGRGTTLTVSS
VL: DIVMTQSQKFLSTSVGDRVSITCKASQNVGTAVAWYQQKPGQSPKLLIYSASNRYTGVPDRFTGSGSGTDFTLTISNMQSEDLAGYFCQQYSSYPYTFGGGTKLEIK
notes: as for B1
B9: 37B9C4 (antibody, V domains shown)
VH: EVNLEESGGGLVQPGGSMKLSCVASGFTFSDYWMNWVRQSPEKGLEWVAEIRLKSNNYATHYAESVKGRFTISRDDSKSSVYLQMNNLRAEDTGIYYCTRPLLWFRRYYAMDYWGQGTSVTVSS
VL: DIQMTQTTSSLSASLGDRITISCSASQGISNYLNWYQQKPDGTVKLLIYYTSSLHSGVPSRFSGSGSGTDYSLTISNLEPADIATYYCQQYSKLPFTFGSGTKLEIK
notes: as for B1
B10: 29B2C10 (antibody, V domains shown)
VH: EVQLQQSGPELVKPGASMKLSCKASGYSFTGYTMHWVKQSHGENLEWIGLINPYNGGTNYNQKFKGKATLTVDKSSSTAYMELLSLTSEDSAVYYCSRWGLRRAMDYWGQGTSVTVSS
VL: DIVMTQSQKFMSTSVGDRVSVTCKASQNVGSNVAWYQQKPGQSPKALIYSASYRYSGVPDRFTGNGSGTDFTLTISNVQSEDLAEYFCQQYYNSPWTFGGGTKLEIK
notes: as for B1
B11: 14F3H2 (antibody, V domains shown)
VH: EVQLQQSGPELVKPGASMKISCKASGYSFTGYTMNWVKQSHGKNLEWIGLINPYNGGIRYNQKFKGKATLTVDKSSSTAYMELLSLTSEDSAVYYCARWGLRRAMDYWGQGTSVTVSS
VL: DIVMTQSQKFMSTSVGDRVSVTCKASQNVGTNVAWYQQKPGQSPKALIYSASYRYSGVPDRFTGSGSGTDFTLTISNVQSEDLAEYFCQQYNSSPWTFGGGTKLEIK
notes: as for B1
B12: 29A7H11H4C12 (antibody, V domains shown)
VH: EVQLQQSGPELVKPGASMKISCKASGYSFTGYTMHWVKQSHGENLEWIGLINPYNGGTNYNQKFKGKATLTVDKSSSTAYMELLSLTSEDSAVYYCSRWGLRRAMDYWGQGTSVTVSS
VL: DIVMTQSQKFMSTSIGDRVSVTCKASQNVGSNVAWYQQKPGQSPKALIYSASYRYSGVPDRFTGNGSGTDFTLTISNVQSEDLAEYFCQQYYNSPWTFGGGTKLEIK
notes: as for B1
B13: 26E1D12 (antibody, V domains shown)
VH: EVQLQQSGPELVKPGASMKISCKASGYSFTGYTMNWVKQSHGKNLEWIGLINPYNGGTNYNQKFKGKATLAVDKSSSTAYMDLLSLTSEDSAVYYCSRWGLRRAMDYWGQGTSVTVSS
VL: DIVMTQSQKFMSTSVGDRVSVTCKASQNVGSNVAWYQQKPGQSPKALIYSASYRYSGVPDRFTGSGSGTDFTLTISNVQSEDLAEYFCQQYNNSPWTFGGGTKLEIK
notes: as for B1
B14: 14C2A11C6 (antibody, V domains shown)
VH: QVHLQQSGAELARPGASVKMSCKASGYTFTTYTMHWVKQRPGQGLEWIGYINPNSAYTNYNQKFKDKATLTADKSSSTAYMQLSSLTSEDSAVYYCARRVLLLRVLDFFDYWGQGTTLTVSS
VL: DVQITQSPSYLAASPGETITINCRASKSINKYLTWYQEKPGKTNKLLIYSGSTLQSGIPSRFSGSGSGSDFTLTISSLEPEDFAMYYCQQHNEYPLTFGTGTKLELK
notes: murine antibody from hybridoma supernatant; also called 14C2A1106
B15: 58-H2L2 (antibody, V domains shown)
VH: QVQLVQSGAEVKKPGASVKVSCKASGYSFTGYYIHWVRQAPGQGLEWIGYISSYNAATSFNQKFKGRVTFTVDTSTSTVYMELSSLRSEDTAVYYCARTELRGPWFAYWGQGTLVTVSS
VL: DTQMTQSPSSLSASVGDRVTITCSASSSVSYMNWYQQKPGKAPKRLIYDTSKLASGVPSRFSGSGSGTDYTLTISSLQPEDFATYYCQQWSNNPLTFGQGTKLEIK
notes: humanized 58F9G10, VH v2 x VL v2
B16: 58-H1L2 (antibody, V domains shown)
VH: QVQLVQSGAEVKKPGASVKVSCKASGYSFTGYYIHWVRQAPGQGLEWMGYISSYNAATSFNQKFKGRVTMTRDTSTSTVYMELSSLRSEDTAVYYCARTELRGPWFAYWGQGTLVTVSS
VL: DTQMTQSPSSLSASVGDRVTITCSASSSVSYMNWYQQKPGKAPKRLIYDTSKLASGVPSRFSGSGSGTDYTLTISSLQPEDFATYYCQQWSNNPLTFGQGTKLEIK
notes: humanized 58F9G10, VH v1 x VL v2

One experiment deals with T1, human G-protein-coupled receptor family C group 5 member D (GPRC5D) (human, UniProt Q9NZD1 1-345).
T1 construct: whole, on cells; also called human GPRC5D protein
T1 sequence (Q9NZD1 whole entry): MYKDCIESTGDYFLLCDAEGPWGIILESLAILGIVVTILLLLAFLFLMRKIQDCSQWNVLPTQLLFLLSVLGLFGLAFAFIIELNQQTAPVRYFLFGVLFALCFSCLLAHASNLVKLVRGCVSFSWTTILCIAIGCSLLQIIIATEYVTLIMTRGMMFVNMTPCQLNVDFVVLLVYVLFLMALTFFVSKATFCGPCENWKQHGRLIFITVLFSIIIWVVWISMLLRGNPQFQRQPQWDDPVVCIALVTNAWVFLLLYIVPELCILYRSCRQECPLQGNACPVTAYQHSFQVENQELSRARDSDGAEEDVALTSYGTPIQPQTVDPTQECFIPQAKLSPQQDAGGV
The experiment in a line: FACS, CHO-K1/human GPRC5D, hybridoma supernatant. The method, then:
Antibodies harvested from the supernatants of the hybridomas were tested for their binding to the human GPRC5D protein expressed on CHO K1 cells was tested. CHO—K1 cells stably expressed human GPRC5D, were harvested from flasks. 100 µl of 1×10^6 cells/ml of cells were incubated with murine antibodies in 3-fold serial dilutions for 30 minutes on ice. After being washed with 200 µl of FACS buffer twice, cells were incubated with secondary antibody for 30 minutes on ice. Cells were washed with 200 µl of FACS buffer twice and transferred to BD Falcon 5 ml tube and analyzed by FACS.
As to B1, the Bottom was -13300, the LogEC50 worked out at 0.884, the Span worked out at 1.43e+06 and the Top worked out at 1.41e+06.

The molecule B2 displayed a Bottom of 46100, a LogEC50 of 0.454, a Span of 789000 and a Top of 835000.

With B3, the Bottom was 57000, the LogEC50 was determined as 0.654, the Span was determined as 1.45e+06 and the Top stood at 1.51e+06.

With B4, the Bottom is 2740, the LogEC50 came out at 1.02, the Span was 919000 and the Top was determined as 922000.

For B5, the Bottom was -14700, the LogEC50 worked out at 0.964, the Span came to 2.07e+06 and the Top came out at 2.05e+06.

B6 displayed a Bottom of 25400, a LogEC50 of 0.511, a Span of 1.17e+06 and a Top of 1.2e+06.

On to B7, for which the Bottom was 6870, the LogEC50 worked out at 0.912, the Span came out at 1.42e+06 and the Top was found to be 1.43e+06.

As to B8, the Bottom turned out to be 24000, the LogEC50 came out at 0.947, the Span amounted to 1.76e+06 and the Top worked out at 1.79e+06.

B9: the Bottom turned out to be 10900, the LogEC50 is 0.592, the Span was determined as 1.75e+06 and the Top was 1.76e+06.

With B10, the Bottom is 68600, the LogEC50 was found to be 0.62, the Span was determined as 1.54e+06 and the Top stood at 1.61e+06.

As for B11, the Bottom is 20400, the LogEC50 was determined as 0.874, the Span was 852000 and the Top was 873000.

The molecule B12 showed a Bottom of 43400, a LogEC50 of 0.738, a Span of 1.42e+06 and a Top of 1.46e+06.

B13 came in with a Bottom of 52700, a LogEC50 of 0.225, a Span of 625000 and a Top of 678000.

Molecule B14 gave a Bottom of 5570, a LogEC50 of 0.993, a Span of 723000 and a Top of 729000.

The next experiment deals with T1, human G-protein-coupled receptor family …. The experiment in a line: FACS, CHO-K1/GPRC5D. (Flow cytometry measures light scatter and fluorescence of single cells or particles in a stream.)
For B15, the Bottom amounted to 4840, the LogEC50 is 0.345, the Span worked out at 103000 and the Top was determined as 108000.

Take B16: the Bottom is 5500, the LogEC50 stood at 0.263, the Span came out at 109000 and the Top was determined as 114000.
